Test results published in US20240336672A1 (INSTITUT PASTEUR, published 2024).
Changes are numbered by the printed parent chain. “And” between values parts separate entries of the source, which are not always exact repeats. Equal values may be shown once.

T1: CoV-OC43 Spike ectodomain (OC43-CoV, UniProt P36334 14-1263)
T1 chain: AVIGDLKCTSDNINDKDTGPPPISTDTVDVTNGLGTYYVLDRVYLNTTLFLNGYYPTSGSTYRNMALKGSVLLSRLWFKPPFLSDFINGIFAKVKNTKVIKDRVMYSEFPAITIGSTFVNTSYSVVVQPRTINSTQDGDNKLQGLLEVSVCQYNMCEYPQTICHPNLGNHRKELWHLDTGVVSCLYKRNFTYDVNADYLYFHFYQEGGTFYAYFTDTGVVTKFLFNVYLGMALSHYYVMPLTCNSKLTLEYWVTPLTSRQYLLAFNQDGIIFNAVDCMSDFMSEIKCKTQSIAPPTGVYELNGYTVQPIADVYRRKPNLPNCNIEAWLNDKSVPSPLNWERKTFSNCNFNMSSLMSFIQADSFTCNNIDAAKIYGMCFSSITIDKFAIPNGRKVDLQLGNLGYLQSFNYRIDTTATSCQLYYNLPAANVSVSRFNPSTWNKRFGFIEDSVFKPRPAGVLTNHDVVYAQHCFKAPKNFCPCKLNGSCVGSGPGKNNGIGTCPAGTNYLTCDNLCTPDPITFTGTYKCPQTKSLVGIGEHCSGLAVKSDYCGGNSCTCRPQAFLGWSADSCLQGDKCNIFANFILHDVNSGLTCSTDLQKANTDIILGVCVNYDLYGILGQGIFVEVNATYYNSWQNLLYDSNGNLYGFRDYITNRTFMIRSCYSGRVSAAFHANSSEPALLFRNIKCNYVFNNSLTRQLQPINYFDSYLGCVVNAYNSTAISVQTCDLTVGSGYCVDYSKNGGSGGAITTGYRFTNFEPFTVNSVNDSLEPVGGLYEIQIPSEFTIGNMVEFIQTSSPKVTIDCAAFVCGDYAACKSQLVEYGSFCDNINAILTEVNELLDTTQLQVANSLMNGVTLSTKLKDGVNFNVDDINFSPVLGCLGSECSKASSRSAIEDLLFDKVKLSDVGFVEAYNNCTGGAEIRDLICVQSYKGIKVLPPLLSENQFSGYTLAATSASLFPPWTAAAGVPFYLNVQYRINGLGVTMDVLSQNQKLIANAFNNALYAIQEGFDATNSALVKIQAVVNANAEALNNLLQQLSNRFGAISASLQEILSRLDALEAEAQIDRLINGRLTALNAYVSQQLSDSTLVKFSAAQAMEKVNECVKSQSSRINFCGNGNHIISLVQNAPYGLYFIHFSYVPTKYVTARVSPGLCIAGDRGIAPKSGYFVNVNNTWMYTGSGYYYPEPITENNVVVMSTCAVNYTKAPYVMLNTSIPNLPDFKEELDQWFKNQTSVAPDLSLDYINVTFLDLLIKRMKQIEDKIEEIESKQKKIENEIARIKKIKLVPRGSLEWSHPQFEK

B1: Cv2.1169 (recombinant human IgG1) (antibody)
heavy: QVQLVQSGPEVKKPGTSVKVSCKASGFTFTTSAVQWVRQARGQRLEWIGWIVVGSGNTNYAQKFQERVTITRDMSTTTAYMELSSLRSEDTAVYYCAAPYCSGGTCLDGFDIWGQGTMVTVSSASTKGPSVFPLAPSSKSTSGGTAALGCLVKDYFPEPVTVSWNSGALTSGVHTFPAVLQSSGLYSLSSVVTVPSSSLGTQTYICNVNHKPSNTKVDKKVEPKSCDKTHTCPPCPAPELLGGPSVFLFPPKPKDTLMISRTPEVTCVVVDVSHEDPEVKFNWYVDGVEVHNAKTKPREEQYNSTYRVVSVLTVLHQDWLNGKEYKCKVSNKALPAPIEKTISKAKQPREPQVYTLPPSRDELTKNQVSLTCLVKGFYPSDIAVEWESNGQPENNYKTTPPVLDSDGSFFLYSKLTVDKSRWQQGNVFSCSVMHEALHNHYTQKSLSLSPGK
light: not shown
notes: also called Cv2.1169 IgG
B2: Cv2.3194 (recombinant human IgG1) (antibody, V domains shown)
VH: EVQLVESGGGLIQPGGSLRLSCAASGITVTSNYMSWVRQAPGKGLEWVSVIYPGGSTFYADSVKGRFTISRDNSKNTLYLQMNSLRAEDTAVYYCARDLVVYGMDVWGQGTTVTVSS
VL: EIVLTQSPGTLSLSPGERATLSCRASQSVSSSYLAWYQQKPGQAPRLLIYGASSRATGIPGRFSGSGSGTDFTLTISRLEPEDFAIYYCQQGVTFGGGTKVEIKR
B3: Cv2.3235 (recombinant human IgG1) (antibody, V domains shown)
VH: B2 VH with I27F, T30S, S31R, P53S, L99G, V100D, V101Y
VL: DIQMTQSPSFLSASVGDRVTITCRASQGISSFLAWYQQKPGKAPKLLIYGASTLQSGVTSRFSGSGSGTEFTLTISSLQPEDFATYYCQRLDSYPPITFGQGTRLEIKR

Legend:
[1] = target: SARS-CoV-2 spike, Omicron BA.1 variant, on virus (SARS-CoV-2); assay: cell-based or functional assay
[2] = target: T2, SARS-CoV-2 spike, Delta variant (B.1.617.2), on virus or pseudotyped particles (SARS-CoV-2); assay: cell-based or functional assay
[3] = target: SARS-CoV-2 spike, Alpha variant (B.1.1.7), on virus or pseudotyped particles (SARS-CoV-2); assay: cell-based or functional assay
[4] = target: SARS-CoV-2 spike, Delta+ variant, on pseudotyped particles (SARS-CoV-2); assay: cell-based or functional assay
[5] = target: SARS-CoV-2 spike, Omicron BA.2 variant, on virus (SARS-CoV-2); assay: cell-based or functional assay
[6] = target: SARS-CoV-2 spike, Beta variant (B.1.351), on virus or pseudotyped particles (SARS-CoV-2); assay: cell-based or functional assay
[7] = target: SARS-CoV-2 spike, Gamma variant (P.1), on virus or pseudotyped particles (SARS-CoV-2); assay: cell-based or functional assay
[8] = target: T1, CoV-OC43 Spike ectodomain; assay: ELISA, coated spike ectodomain
[9] = target: T2, SARS-CoV-2 spike, Delta variant …; assay: cell-based or functional assay; remark: listed apart in the source
[10] = target: SARS-CoV-2 spike, Omicron BA.1 variant, on virus (SARS-CoV-2); assay: cell-based or functional assay; remark: listed apart in the source
[11] = target: T2, SARS-CoV-2 spike, Delta variant …; assay: cell-based or functional assay; remark: listed apart in the source

Binder | S-Fuse neutralization IC50 [1] [µg/mL] | S-Fuse neutralization IC90 [1] [µg/mL] | Pseudoneutralization IC50 [2] [µg/mL] | Pseudoneutralization IC90 [2] [µg/mL] | S-Fuse neutralization IC50 [2] [µg/mL] | S-Fuse neutralization IC90 [2] [µg/mL] | Pseudoneutralization IC50 [3] [µg/mL] | Pseudoneutralization IC90 [3] [µg/mL] | S-Fuse neutralization IC50 [3] [µg/mL] | S-Fuse neutralization IC90 [3] [µg/mL] | Pseudoneutralization IC50 [4] [µg/mL] | Pseudoneutralization IC90 [4] [µg/mL] | S-Fuse neutralization IC50 [5] [µg/mL] | S-Fuse neutralization IC90 [5] [µg/mL] | Pseudoneutralization IC50 [6] [µg/mL] | Pseudoneutralization IC90 [6] [µg/mL] | S-Fuse neutralization IC50 [6] [µg/mL] | S-Fuse neutralization IC90 [6] [µg/mL] | Pseudoneutralization IC50 [7] [µg/mL] | Pseudoneutralization IC90 [7] [µg/mL] | also measured
B1 | 0.265 | 7.59 | 0.008 | 0.0341 | 0.0021 | 0.0064 | 0.0055 | 0.024 | 0.0016 | 0.004 | 0.0036 | 0.0149 | 0.332 | 9.69 | 0.0142 | 0.0342 | 0.0023 | 0.0072 | 0.0096 | 0.0292 | S-Fuse neutralization IC50 [7]: 0.0016 µg/mL; S-Fuse neutralization IC90 [7]: 0.0086 µg/mL; binding result [8]: no binding; IC50, S-Fuse neutralisation [9]: 0.0025 µg/mL; S-Fuse IC50 [10]: 0.253 µg/mL and 0.212 µg/mL; neutralization IC50 [10]: ~0.25 µg/mL; S-Fuse IC50 [11]: 0.00446 µg/mL
B2 | 0.0242 | 0.709 | 0.0544 | 0.115 | 0.0066 | 0.0547 | 0.0347 | 0.132 | 0.0043 | 0.0054 | 0.0206 | 0.089 | 0.0405 | 0.582 | 0.0343 | 0.119 | 0.0052 | 0.02 | 0.0099 | 0.0561 | S-Fuse neutralization IC90 [7]: 0.0056 µg/mL; IC50, S-Fuse neutralisation [9]: 0.0074 µg/mL; S-Fuse IC50 [10]: 0.0242 µg/mL
B3 | – | – | – | – | – | – | – | – | – | – | – | – | – | – | – | – | – | – | – | – | binding result [8]: no binding
